Measurements published in publication doi:10.1101/264085 (bioRxiv, 2018).

How the values were obtained:
[1] = target: T1, NDP52(1-126) (human, UniProt Q13137 1-126); experiment: ITC
T1 sequence (looked up): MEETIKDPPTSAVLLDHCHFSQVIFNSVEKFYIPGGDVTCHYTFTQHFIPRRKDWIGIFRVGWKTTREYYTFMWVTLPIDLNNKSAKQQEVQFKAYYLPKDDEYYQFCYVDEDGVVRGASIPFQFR

[2] = target: the molecule itself; experiment: AUC
[3] = target: T2, NDP52(10-126) (human, UniProt Q13137 10-126); experiment: crystal structure
T2 sequence (looked up): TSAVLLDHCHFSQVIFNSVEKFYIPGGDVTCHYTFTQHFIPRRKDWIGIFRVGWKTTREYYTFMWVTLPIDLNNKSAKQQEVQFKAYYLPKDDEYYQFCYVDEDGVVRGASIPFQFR

[4] = target: T2, NDP52(10-126); experiment: AUC
[5] = target: T3, NDP52(1-126) T39E (human, UniProt Q13137 1-126, T39E); experiment: ITC
T3 sequence (looked up): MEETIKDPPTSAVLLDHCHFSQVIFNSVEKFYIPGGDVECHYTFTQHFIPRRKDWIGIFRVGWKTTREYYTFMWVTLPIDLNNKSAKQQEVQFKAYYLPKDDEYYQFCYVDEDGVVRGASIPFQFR

[6] = target: T4, NDP52(10-126) F20Q (human, UniProt Q13137 10-126, F20Q); experiment: ITC
T4 sequence (looked up): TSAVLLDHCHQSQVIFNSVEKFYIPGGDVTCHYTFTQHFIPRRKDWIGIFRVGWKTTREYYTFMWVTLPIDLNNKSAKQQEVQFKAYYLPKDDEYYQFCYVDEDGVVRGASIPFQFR

[7] = target: TAX1BP1(1-121) S25E (human, UniProt Q86VP1 1-121, S25E); experiment: ITC
TAX1BP1(1-121) S25E, sequence (Q86VP1 1-121 S25E): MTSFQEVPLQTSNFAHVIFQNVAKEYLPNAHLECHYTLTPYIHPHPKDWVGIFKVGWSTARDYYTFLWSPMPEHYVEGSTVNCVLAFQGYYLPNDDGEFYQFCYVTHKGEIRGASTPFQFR

[8] = target: TAX1BP1(1-121) (human, UniProt Q86VP1 1-121); experiment: ITC
TAX1BP1(1-121), sequence (Q86VP1 1-121): as the sequence (Q86VP1 1-121 S25E) above, with E25S counted along it

Binder | Kd [1] [nM] | stoichiometry N [2] | stoichiometry N [3] | stoichiometry N [4] | binding result [5] | binding result [6] | binding result [7] | Kd [8] [nM]
NAP1(1-85) (domain or fragment, human, UniProt Q9H6S1 1-85, looked up) MDALVEDDICILNHEKAHKRDTVTPVSIYSGDESVASHFALVTAYEDIKKRLKDSEKENSLLKKRIRFLEEKLIARFEEETSSVG | ~1490 | – | – | – | – | – | – | –
ESVASHFALVTAYEDIKKRLKDSEKENSLLKKRIRFLEEKLIA (domain or fragment, human, UniProt Q9H6S1 33-75, looked up) [NAP1(33-75)] | ~1150 | 2 | 1 NDP52 chains per NAP1 chain (2:2) | 2 NDP52(10-126) molecules per NAP1(33-75) dimer | binds | binds | binds | ~2050
NAP1(1-75) (domain or fragment, human, UniProt Q9H6S1 1-75, looked up) MDALVEDDICILNHEKAHKRDTVTPVSIYSGDESVASHFALVTAYEDIKKRLKDSEKENSLLKKRIRFLEEKLIA | ~1800 | – | – | – | – | – | – | –
